Entries after “also recorded” stand apart in the source; their conditions may differ. Where no end group is shown, it is not given here. [ ]: non-standard residue; d: D form. The star is where a group is joined. aminomethylferrocene = [Fe+2].c1cc[c-](CN*)c1.c1cc[cH-]c1; Ava = NCCCCC(=O)O
Key:
[1] = molecular target: T1, cathepsin B (Homo sapiens, UniProt P07858); experiment: Determination of cleavage sites by HPLC-MS; type: biochemical; set-up: purchased R&D Systems Inc. (Minneapolis, MN); conditions: 50 mM MES pH 5.0, 250 mM NaCl, 0.17 μM cathepsin B, 2 h and 3 h
Source text: Here, the data is normalized to the value of ip0 derived from the fitting data according to eq 9. This normalization accounts for variations in I′ of the peptide-Fc substrate between each of the electrodes, and the values of ip0 and values of ip0 are listed in Table S3. […] FIG. 8b is a bar graph illustrating the differences in the measured values of 1/τ broken down by channels with H-16 (shown in blue), H-15 (shown in red) and H-3 (shown in green), similar to FIG. 8a. Here the average values of 1/τ were measured to be (8.9±1.1)×10^−4 s^−1, (6.8±1.8)×10^−4 s^−1, and (7.4±0.9)×10^−4 s^−1 for H-16, H-15 and H-3, respectively. These three peptides show similar values of 1/τ because the majority of the amino acid sequences are similar. […] For peptide H-15, all analyte solutions contained 6.5 mM peptide H-15, 50 mM MES buffer (pH 5.0) and 250 mM NaCl. Chromatograms of the peptide in the solution were then analyzed. H-15 appeared at 35.9 min in the chromatogram as verified by mass spectrometry. After incubation with cathepsin B for 2 h the cleaved fragment connected to the Fc moiety appeared at 16.0 min in the chromatogram as verified by mass spectrometry [showing a mass of 626.5 [M+23(Na)] in the mass spectrum]. A final chromatogram of peptide H-15 obtained after incubation with 5.75 ng/μL (0.17 μM) cathepsin B for 3 h confirms the cleavage site. Analyte solution for peptide H-16 was 50 mM MES (pH 5.0) and 250 mM NaCl. The hexapeptide appeared at 33.4 min in the HPLC chart and its structure was verified by mass spectrometry analysis. After treatment of hexapeptide H-16 with cathepsin B in 50 mM MES (pH 5.0) and 250 mM NaCl for 2 h the cleaved fragment appeared at 16.0 min and its structure was verified by MS analysis [showing a mass of 625.043 (M−H2+1) in the mass spectrum]. Cleavage was confirmed by incubation of 6.5 mM peptide H-16 in 50 mM MES (pH 5.0) and 250 mM NaCl incubated with 5.75 ng/μl (0.17 μM) cathepsin B for 3 h.
The cleavage sites of the hexapeptide-Fc substrates were examined using HPLC as described above. Analytical HPLC was performed with a Shimadzu SCL-10A HPLC system fitted with a proto 300 C18 reverse phase semi-prep column (10 μm, 250×10 mm). The flow rate was 1 ml/min with a gradient elution starting from 100% solvent A (water containing 0.1% TFA) to 20% solvent A and 80% solvent B (acetonitrile containing 0.1% TFA) over 50 min. The UV absorbance was monitored at 254 nm. […] The absorbance peak at ˜33.5 min was peptide H-16 and peak at 16.0 min is assigned as [Leu-Ala-Gly-Val-Ala-NH═CH-Fc]^+ (residues 2-6 of SEQ ID NO:3) (mass of 625.288). […]

[2] = molecular target: T1, cathepsin B; experiment: Screening of peptide-Fc substrates for cathepsin B (electrochemical measurements, fluorogenic assays, HPLC-MS); type: biochemical; conditions: for proteolysis rate by cathepsin B compared to other candidates: library of nine peptide-Fc substrates
Source text: A library of nine peptide substrates was examined initially for proteolysis using cathepsin B (Table S1). […] The order and amino acid sequence of the peptide substrates were designed according to the literature reported sequences with minor modifications. Among the nine peptides, three most reactive peptide substrates, i.e., H-3, H-15, and H-16 (Table 1), were selected for our studies on cathepsin B activity profiling. The peptides were designed based on literature reports and synthesized using a solid-phase microwave peptide synthesizer detailed in the Supporting Information below. For example, peptide H-15, a representative peptide, was made by the coupling of H-Ala-2-chlorotrityl resin with various N-fluorenylmethyloxycarbonyl-amino acids (N-Fmoc-amino acids) sequentially, condensing with the linker N-Boc-NH—(CH2)4—CO2H, cleavage of the peptide from the resin, re-protection of the amino group of linker, bonding with (aminomethyl)ferrocene, and removal of the protecting group.
We have designed and synthesized nine different peptide-Fc substrates containing 6-8 amino acids (listed in Table S1 below) for proteolysis by cathepsin B based on the specific recognition reported in literature and tested the cathepsin B activities on these peptide-Fc substrates by the combination of electrochemical measurements (using Au disk electrodes and VACNF nanoelectrode arrays), fluorogenic assays and HPLC-MS analysis.

| Substance | cleavage site by cathepsin B [1] | proteolysis rate by cathepsin B compared to other candidates [2] | cleavage site by cathepsin B ([1]; listed as peptide-Fc) | proteolytic activity by cathepsin B among synthesized peptides ([2]; selected from about 30 synthesized peptides) |
| --- | --- | --- | --- | --- |
| H2N-(CH2)4-CO-Pro-Leu-Ala-Gly-Val-Ala-NH-CH2-Fc ([Ava]PLAGVA-aminomethylferrocene) [Peptide H-16] | between Pro-Leu | most reactive; also recorded: higher proteolysis rates | – | – |
| H2N-(CH2)4-CO-Pro-Leu-Ala-Phe-Val-Ala-NH-CH2-Fc ([Ava]PLAFVA-aminomethylferrocene) [Peptide H-15] | between Leu and Ala residues | most reactive; also recorded: higher proteolysis rates | between Leu and Ala | highest proteolytic activity |
| H2N-(CH2)4-CO-Pro-Leu-Arg-Phe-Gly-Ala-NH-CH2-Fc ([Ava]PLRFGA-aminomethylferrocene) [Peptide H-3] | between Gly-Ala and Phe-Gly residues | most reactive; also recorded: higher proteolysis rates | – | – |

Source: patent US12618835B2, “Multiplex microelectrode array for detection of proteases as biomarkers” (Kansas State University Research Foundation, priority 2021, dated 2026)
